Read-outs that look alike come from different tables or passages of the source. No end group written: not given here.
Columns and labels:
[1] = biological target: T1, enzyme I (phosphoenolpyruvate-protein phosphotransferase, EC 2.7.3.9) of the E. coli phosphotransferase system (E. coli, UniProt P08839 1-575); experiment: cell-based or functional assay
[2] = biological target: T1, enzyme I (phosphoenolpyruvate-protein …); experiment: cell-based or functional assay; remark: listed apart in the source

Binder	inhibition IC50 [1]	uncoupling P;Ipeptide/h [1]	inhibition IC50 [2]	uncoupling Pi/peptide (x IC50/h) [2]
KKFHLRK [peptide 1 KKFHLRK]	150 µM	0.49 Pi/peptide/h		
WHKR [peptide 12 WHKR]	4900 µM			
Ac-WHKR [peptide 13 Ac-WHKR]	5800 µM			
KKFDLRK [peptide 3 KKFDLRK]	820 µM	0.05 Pi/peptide/h		
KKWHLRKR [peptide 5 KKWHLRKR]	30 µM	0.3 Pi/peptide/h		
KGWHKRKK [peptide 6 KGWHKRKK]	530 µM	0.23 Pi/peptide/h		
KKWHRRKK [peptide 7 KKWHRRKK]	300 µM	0.29 Pi/peptide/h		
KKWHKRKK [peptide 8 KKWHKRKK]	440 µM	0.215 Pi/peptide/h		
KKFHIRKR [peptide 9 KKFHIRKR]	160 µM	0.31 Pi/peptide/h		
GLRFGKTRVHYLVLG [peptide 14 GLRFGKTRVHYLVLG]			25 µM	3.2 Pi/peptide (x IC50/h)
SGRKSTRVHHWLLVL (not fully specified (residue 11)) [peptide 15 SGRKSTRVHHWLLVL]			60 µM	6.6 Pi/peptide (x IC50/h)
KMSRHRKPGA [peptide 16 KMSRHRKPGA]			100 µM	22.2 Pi/peptide (x IC50/h)
KISRHGKRGK [peptide 18 KISRHGKRGK]			140 µM	1.9 Pi/peptide (x IC50/h)
KISRHGRPTG [peptide 19 KISRHGRPTG]			1060 µM	479 Pi/peptide (x IC50/h)
RIHFIPRRGR [peptide 20 RIHFIPRRGR]			280 µM	39.6 Pi/peptide (x IC50/h)
RLHYLF [peptide 21 RLHYLF]			375 µM	64.2 Pi/peptide (x IC50/h)
DGARLHYLF [peptide 22 DGARLHYLF]			1200 µM	132 Pi/peptide (x IC50/h)
Ac-DGARLHYLF [peptide 23 AcDGARLHYLF]			7600 µM	15.2 Pi/peptide (x IC50/h)
RHWSIF [peptide 24 RHWSIF]			400 µM	
RHRTLF [peptide 25 RHRTLF]			410 µM	
RHITLF [peptide 28 RHITLF]			1380 µM	
RHYLLF [peptide 26 RHYLLF]			500 µM	
RHITSL [peptide 27 RHITSL]			650 µM	
MSRHRN [peptide 29 MSRHRN]			760 µM	144 Pi/peptide (x IC50/h)
MRLLKTLCFGLCG [peptide 31 MRLLKTLCFGLCG]			3500 µM	
Ac-MRLLKTLCFVGLCG (cysteine pairing not given here) [peptide 32 AcMRLLKTLCFVGLCG]			> 10000 µM	
